B1: CIgG4B3A1(G4S)2 (Fc fusion)
chain 1: GPPCPPCPAPEFLGGPSVFLFPPKPKDTLMISRTPEVTCVVVDVSQEDPEVQFNWYVDGVEVHNAKTKPREEQFNSTYRVVSVLTVLHQDWLNGKEYKCKVSNKGLPSSIEKTISKAKGQPREPQVYTLPPCQEEMTKNQVSLWCLVKGFYPSDIAVEWESNGQPENNYKTTPPVLDSDGSFFLYSRLTVDKSRWQEGNVFSCSVMHEALHNHYTQKSLSLSLGKGGGGSGGGGSDVQLQESGGGLVQAGGSLRLSCAASGFIFRLAGMSWVRQAPGKGFEWVSGITMDGSTTNYADSVKGRFTISRDNSKNRLYLQMNSLKPEDTAVYYCARGAKGGYNDPRGQGTQVTVS
chain 2: GPPCPPCPAPEFLGGPSVFLFPPKPKDTLMISRTPEVTCVVVDVSQEDPEVQFNWYVDGVEVHNAKTKPREEQFNSTYRVVSVLTVLHQDWLNGKEYKCKVSNKGLPSSIEKTISKAKGQPREPQVCTLPPSQEEMTKNQVSLSCAVKGFYPSDIAVEWESNGQPENNYKTTPPVLDSDGSFFLVSRLTVDKSRWQEGNVFSCSVMHEALHNHYTQKSLSLSLGKGGGGSGGGGSEVQLLESGGGLVQPGGSLRLSCAASGFTFGNYDMAWVRQAPGKRPEWVSSIDTGGDITHYADSVKGRFTISRDNAKNTLYLQMNSLRPEDTAVYWCATDEEYALGPNEFDYYGQGTLVTVSS
notes: also called CIgG4B3A1(GS)2
B2: CIgG4D1A1(G4S)2 (Fc fusion)
chain 1: GPPCPPCPAPEFLGGPSVFLFPPKPKDTLMISRTPEVTCVVVDVSQEDPEVQFNWYVDGVEVHNAKTKPREEQFNSTYRVVSVLTVLHQDWLNGKEYKCKVSNKGLPSSIEKTISKAKGQPREPQVYTLPPCQEEMTKNQVSLWCLVKGFYPSDIAVEWESNGQPENNYKTTPPVLDSDGSFFLYSRLTVDKSRWQEGNVFSCSVMHEALHNHYTQKSLSLSLGKGGGGSGGGGSDVQLQESGGGLVQAGGSLRLSCAASGLTFSRCDMGWFRQAPGKEREFVARISANGASTHYADFVKGRFTISRDNAKNTVYLQMNYLKPEDTAVYICAAARVPVTWQLYDYWGQGTQVTVS
chain 2: B1 chain 2
B3: CIgG4B3A1(RS) (Fc fusion)
chain 1: GPPCPPCPAPEFLGGPSVFLFPPKPKDTLMISRTPEVTCVVVDVSQEDPEVQFNWYVDGVEVHNAKTKPREEQFNSTYRVVSVLTVLHQDWLNGKEYKCKVSNKGLPSSIEKTISKAKGQPREPQVYTLPPCQEEMTKNQVSLWCLVKGFYPSDIAVEWESNGQPENNYKTTPPVLDSDGSFFLYSRLTVDKSRWQEGNVFSCSVMHEALHNHYTQKSLSLSLGKRSDVQLQESGGGLVQAGGSLRLSCAASGFIFRLAGMSWVRQAPGKGFEWVSGITMDGSTTNYADSVKGRFTISRDNSKNRLYLQMNSLKPEDTAVYYCARGAKGGYNDPRGQGTQVTVS
chain 2: GPPCPPCPAPEFLGGPSVFLFPPKPKDTLMISRTPEVTCVVVDVSQEDPEVQFNWYVDGVEVHNAKTKPREEQFNSTYRVVSVLTVLHQDWLNGKEYKCKVSNKGLPSSIEKTISKAKGQPREPQVCTLPPSQEEMTKNQVSLSCAVKGFYPSDIAVEWESNGQPENNYKTTPPVLDSDGSFFLVSRLTVDKSRWQEGNVFSCSVMHEALHNHYTQKSLSLSLGKRSEVQLLESGGGLVQPGGSLRLSCAASGFTFGNYDMAWVRQAPGKRPEWVSSIDTGGDITHYADSVKGRFTISRDNAKNTLYLQMNSLRPEDTAVYWCATDEEYALGPNEFDYYGQGTLVTVSS
B4: CIgG4D1A1(RS) (Fc fusion)
chain 1: GPPCPPCPAPEFLGGPSVFLFPPKPKDTLMISRTPEVTCVVVDVSQEDPEVQFNWYVDGVEVHNAKTKPREEQFNSTYRVVSVLTVLHQDWLNGKEYKCKVSNKGLPSSIEKTISKAKGQPREPQVYTLPPCQEEMTKNQVSLWCLVKGFYPSDIAVEWESNGQPENNYKTTPPVLDSDGSFFLYSRLTVDKSRWQEGNVFSCSVMHEALHNHYTQKSLSLSLGKRSDVQLQESGGGLVQAGGSLRLSCAASGLTFSRCDMGWFRQAPGKEREFVARISANGASTHYADFVKGRFTISRDNAKNTVYLQMNYLKPEDTAVYICAAARVPVTWQLYDYWGQGTQVTVS
chain 2: B3 chain 2
B5: CIgG4B3A1(G4S)1 (Fc fusion)
chain 1: GPPCPPCPAPEFLGGPSVFLFPPKPKDTLMISRTPEVTCVVVDVSQEDPEVQFNWYVDGVEVHNAKTKPREEQFNSTYRVVSVLTVLHQDWLNGKEYKCKVSNKGLPSSIEKTISKAKGQPREPQVYTLPPCQEEMTKNQVSLWCLVKGFYPSDIAVEWESNGQPENNYKTTPPVLDSDGSFFLYSRLTVDKSRWQEGNVFSCSVMHEALHNHYTQKSLSLSLGKGGGGSDVQLQESGGGLVQAGGSLRLSCAASGFIFRLAGMSWVRQAPGKGFEWVSGITMDGSTTNYADSVKGRFTISRDNSKNRLYLQMNSLKPEDTAVYYCARGAKGGYNDPRGQGTQVTVS
chain 2: GPPCPPCPAPEFLGGPSVFLFPPKPKDTLMISRTPEVTCVVVDVSQEDPEVQFNWYVDGVEVHNAKTKPREEQFNSTYRVVSVLTVLHQDWLNGKEYKCKVSNKGLPSSIEKTISKAKGQPREPQVCTLPPSQEEMTKNQVSLSCAVKGFYPSDIAVEWESNGQPENNYKTTPPVLDSDGSFFLVSRLTVDKSRWQEGNVFSCSVMHEALHNHYTQKSLSLSLGKGGGGSEVQLLESGGGLVQPGGSLRLSCAASGFTFGNYDMAWVRQAPGKRPEWVSSIDTGGDITHYADSVKGRFTISRDNAKNTLYLQMNSLRPEDTAVYWCATDEEYALGPNEFDYYGQGTLVTVSS
notes: also called CIgG4B3A1(GS)1
B6: CIgG4D1A1(G4S)1 (Fc fusion)
chain 1: GPPCPPCPAPEFLGGPSVFLFPPKPKDTLMISRTPEVTCVVVDVSQEDPEVQFNWYVDGVEVHNAKTKPREEQFNSTYRVVSVLTVLHQDWLNGKEYKCKVSNKGLPSSIEKTISKAKGQPREPQVYTLPPCQEEMTKNQVSLWCLVKGFYPSDIAVEWESNGQPENNYKTTPPVLDSDGSFFLYSRLTVDKSRWQEGNVFSCSVMHEALHNHYTQKSLSLSLGKGGGGSDVQLQESGGGLVQAGGSLRLSCAASGLTFSRCDMGWFRQAPGKEREFVARISANGASTHYADFVKGRFTISRDNAKNTVYLQMNYLKPEDTAVYICAAARVPVTWQLYDYWGQGTQVTVS
chain 2: B5 chain 2
B7: CIgG4B2A1(G4S)3 (Fc fusion)
chain 1: GPPCPPCPAPEFLGGPSVFLFPPKPKDTLMISRTPEVTCVVVDVSQEDPEVQFNWYVDGVEVHNAKTKPREEQFNSTYRVVSVLTVLHQDWLNGKEYKCKVSNKGLPSSIEKTISKAKGQPREPQVYTLPPCQEEMTKNQVSLWCLVKGFYPSDIAVEWESNGQPENNYKTTPPVLDSDGSFFLYSRLTVDKSRWQEGNVFSCSVMHEALHNHYTQKSLSLSLGKGGGGSGGGGSGGGGSQVQLVESGGGLVQAGGSLRLSCAVFGSTFSNNVADWYRQAPGKQRELVARISASGATREYGDSVKGRFTISRDDAKNTMYLQMNNLKPEDTAVYRCHKIEWEDLSRKDYWGQGTQVTVS
chain 2: GPPCPPCPAPEFLGGPSVFLFPPKPKDTLMISRTPEVTCVVVDVSQEDPEVQFNWYVDGVEVHNAKTKPREEQFNSTYRVVSVLTVLHQDWLNGKEYKCKVSNKGLPSSIEKTISKAKGQPREPQVCTLPPSQEEMTKNQVSLSCAVKGFYPSDIAVEWESNGQPENNYKTTPPVLDSDGSFFLVSRLTVDKSRWQEGNVFSCSVMHEALHNHYTQKSLSLSLGKGGGGSGGGGSGGGGSEVQLLESGGGLVQPGGSLRLSCAASGFTFGNYDMAWVRQAPGKRPEWVSSIDTGGDITHYADSVKGRFTISRDNAKNTLYLQMNSLRPEDTAVYWCATDEEYALGPNEFDYYGQGTLVTVSS
B8: CIgG4B3A1(G4S)3 (Fc fusion)
chain 1: GPPCPPCPAPEFLGGPSVFLFPPKPKDTLMISRTPEVTCVVVDVSQEDPEVQFNWYVDGVEVHNAKTKPREEQFNSTYRVVSVLTVLHQDWLNGKEYKCKVSNKGLPSSIEKTISKAKGQPREPQVYTLPPCQEEMTKNQVSLWCLVKGFYPSDIAVEWESNGQPENNYKTTPPVLDSDGSFFLYSRLTVDKSRWQEGNVFSCSVMHEALHNHYTQKSLSLSLGKGGGGSGGGGSGGGGSDVQLQESGGGLVQAGGSLRLSCAASGFIFRLAGMSWVRQAPGKGFEWVSGITMDGSTTNYADSVKGRFTISRDNSKNRLYLQMNSLKPEDTAVYYCARGAKGGYNDPRGQGTQVTVS
chain 2: B7 chain 2
notes: also called CIgG4B3A1(GS)3

Molecular target: T1, recombinant human IgE (human, UniProt P01854-1 1-428)
T1 construct: made in-house (ALK); preloaded on immobilised FcεRIα in the displacement ELISA
T1 sequence (P01854 other isoform, or with tags, fused parts or gaps): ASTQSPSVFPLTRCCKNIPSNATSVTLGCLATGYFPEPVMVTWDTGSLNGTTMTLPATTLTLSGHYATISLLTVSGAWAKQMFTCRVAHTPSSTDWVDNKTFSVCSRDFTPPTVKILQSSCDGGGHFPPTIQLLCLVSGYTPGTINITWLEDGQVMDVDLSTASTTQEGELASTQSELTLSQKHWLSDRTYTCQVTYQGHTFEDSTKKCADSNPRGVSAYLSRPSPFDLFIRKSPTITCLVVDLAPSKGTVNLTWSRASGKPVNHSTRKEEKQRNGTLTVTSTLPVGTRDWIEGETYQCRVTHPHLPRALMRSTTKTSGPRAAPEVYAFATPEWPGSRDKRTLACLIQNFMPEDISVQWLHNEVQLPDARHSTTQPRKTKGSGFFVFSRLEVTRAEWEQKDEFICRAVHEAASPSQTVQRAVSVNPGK
Test: IgE-FcεRIα displacement ELISA
Outline: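 Streptavidin-coated plates carried site-specifically biotinylated recombinant human FcεRIα, loaded with recombinant human IgE at 13 ng/ml. sdAbs in a pM–μM series were added for 1 h, and displaced IgE was washed off. Percent displacement was the signal reduction versus the no-sdAb control, giving EC50 and maximal effect.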

Row | Binder | EC50 | Max effect
1 | B1 | 32 nM | 85%
2 | B2 | 30 nM | > 95%
3 | B3 | – | 0%
4 | B4 | – | 30%
5 | B5 | – | 45%
6 | B6 | 52 nM | 90%
7 | B7 | 2.1 nM | > 95%
8 | B8 | 5.4 nM | 95%

— patent US20250171562A1 (ALK ABELL, published 2025)
